# According to PMC5438440:
# Molecular target: human μ receptor (human) (UniProt P35372)
# Chain of UniProt P35372 (P35372 whole entry): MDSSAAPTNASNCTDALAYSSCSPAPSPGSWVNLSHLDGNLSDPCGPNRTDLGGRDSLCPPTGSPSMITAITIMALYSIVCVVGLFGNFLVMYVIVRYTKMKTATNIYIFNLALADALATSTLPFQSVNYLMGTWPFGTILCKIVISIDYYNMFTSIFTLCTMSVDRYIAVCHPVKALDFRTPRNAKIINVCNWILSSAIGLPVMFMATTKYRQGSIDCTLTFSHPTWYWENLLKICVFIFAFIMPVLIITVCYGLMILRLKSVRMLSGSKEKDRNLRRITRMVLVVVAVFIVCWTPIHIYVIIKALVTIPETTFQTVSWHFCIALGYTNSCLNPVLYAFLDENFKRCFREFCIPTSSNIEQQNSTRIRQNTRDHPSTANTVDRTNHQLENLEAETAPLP
substance,measurement,value
DAMGO (peptide),"EC50 of the FRET signal increase (cAMP decrease) of the Epac sensor H187 in single HEK293 cells co-expressing μR, increasing concentrations of DAMGO, no forskolin pre-treatment",91 pM
